This test concerns the target human MPL (thrombopoietin receptor) (human) (UniProt P40238). The test is described as follows: cell-based or functional assay.

B1: CD8SP-178-(vL-vH)-Myc-CD28z-T2A-PAC(031615-R04) (scFv)
chain: DIVMTQAAPSIPVTPGESVSISCRSDKSLLHSNGNTYLFWFLQRPGQSPQLLIYRMSNLASGVPDRFSGSGSGTAFTLRISGVEAEDVGVYYCMQHLEYPYTFGGGTKLEIKGGGGSGGGGSGGGGSQVQLQQSGPELVKPGASVKMSCKASGYAFSSSWLNWVRQRPGKGLEWIGRIYPGDGENHYNGKFKGKATLTADKSSSTGYMQLSSLTSEDSAVYFCASYYEGGYWGQGTLITVSATREQKLISEEDLKIEVMYPPPYLDNEKSNGTIIHVKGKHLCPSPLFPGPSKPFWVLVVVGGVLACYSLLVTVAFIIFWVRSKRSRLLHSDYMNMTPRRPGPTRKHYQPYAPPRDFAAYRSRVKFSRSADAPAYQQGQNQLYNELNLGRREEYDVLDKRRGRDPEMGGKPRRKNPQEGLYNELQKDKMAEAYSEIGMKGERRRGKGHDGLYQGLSTATKDTYDALHMQALPPRSSGSGEGRGSLLTCGDVEENPG
On to B1, for which the GFP induction (%) in CAR-expressing Jurkat-NFAT-EGFP cells, target cell line HEL was found to be 2%; the GFP induction (%) in CAR-expressing Jurkat-NFAT-EGFP cells, target cell line RAJI-Mpl turned out to be 3%; the GFP induction (%) in CAR-expressing Jurkat-NFAT-EGFP cells, target cell line RAJI-vector stood at 4%.

B2: CD8SP-161-(vL-vH)-Myc-CD28z-T2A-PAC(021715-Z07) (scFv)
chain: DDIQMTQSSSSFSVSLGDRVTITCMASEDIYIRLAWYQQKPGNAPRLLISAATSLETGVPSRFSGSGSGKDYTLSITSLQTEDVGTYYCQQYWSSPWTFGGGTKLEINGGGGSGGGGSGGGGSDVQLQESGPGLVKPSQSLSLTCTVTGYSITSDYTWNWIRQFPGNKLEWMGYITYSGSTSYNPSLKSRNSITRDTSKNQFFLQLNSVTTEDTATYYCARLGRRYTMDYWGQGTSVTVSSTREQKLISEEDLKIEVMYPPPYLDNEKSNGTIIHVKGKHLCPSPLFPGPSKPFWVLVVVGGVLACYSLLVTVAFIIFWVRSKRSRLLHSDYMNMTPRRPGPTRKHYQPYAPPRDFAAYRSRVKFSRSADAPAYQQGQNQLYNELNLGRREEYDVLDKRRGRDPEMGGKPRRKNPQEGLYNELQKDKMAEAYSEIGMKGERRRGKGHDGLYQGLSTATKDTYDALHMQALPPRSSGSGEGRGSLLTCGDVEENPG
With B2, the GFP induction (%) in CAR-expressing Jurkat-NFAT-EGFP cells, target cell line HEL was 14%; the GFP induction (%) in CAR-expressing Jurkat-NFAT-EGFP cells, target cell line RAJI-Mpl is 11%; the GFP induction (%) in CAR-expressing Jurkat-NFAT-EGFP cells, target cell line RAJI-vector is 5%.

B3: CD8SP-AB317-(vL-vH)-Myc-CD28z-T2A-PAC(031615-T04) (scFv)
chain: DIVLTQSPASLAVSLGQSVTISCRASESVEYYGTSLMQWYQQKPGQPPKLLIYGASNVESGVPARFSGSGSGTDFSLNIHPVEEDDIAMYFCQQSRKVPWTFGGGTKLEIKGGGGSGGGGSGGGGSEVKLVESGGGLVKPGGSRKLSCAASGFTFSSYTMSWVRQTPAKRLEWVATISSGSSTIYYADTVKGRFTISRDNAKNTLFLQMTSLRSEDTAMYYCARRWFLDCWGQGTTLTVSSTREQKLISEEDLKIEVMYPPPYLDNEKSNGTIIHVKGKHLCPSPLFPGPSKPFWVLVVVGGVLACYSLLVTVAFIIFWVRSKRSRLLHSDYMNMTPRRPGPTRKHYQPYAPPRDFAAYRSRVKFSRSADAPAYQQGQNQLYNELNLGRREEYDVLDKRRGRDPEMGGKPRRKNPQEGLYNELQKDKMAEAYSEIGMKGERRRGKGHDGLYQGLSTATKDTYDALHMQALPPRSSGSGEGRGSLLTCGDVEENPG
The molecule B3 had a GFP induction (%) in CAR-expressing Jurkat-NFAT-EGFP cells, target cell line HEL of 1%; a GFP induction (%) in CAR-expressing Jurkat-NFAT-EGFP cells, target cell line RAJI-Mpl of 6%; a GFP induction (%) in CAR-expressing Jurkat-NFAT-EGFP cells, target cell line RAJI-vector of 3%.

B4: CD8SP-175-(vL-vH)-Myc-CD28z-T2A-PAC(031615-Q04) (scFv)
chain: DQIVLTQSPAIMSASPGEKVTISCSASSSVSYMYWYQQKPGSSPKPWIYRTSNLASGVPARFSGSGSGTSYSLTISNMEAEDAAAYYCQQYHSYPTTFGGGTKLEVKGGGGSGGGGSGGGGSEVQLVESGGGLVQPKGSLKLSCAASGFSFNTYAMNWVRQAPGKGLEWIAHIRSKSNNFATYYADSVKDRFSISRDASENILFLQMNNLKTEDTAMYYCVRQGGDFPMDYWGQGTSVTVSSTREQKLISEEDLKIEVMYPPPYLDNEKSNGTIIHVKGKHLCPSPLFPGPSKPFWVLVVVGGVLACYSLLVTVAFIIFWVRSKRSRLLHSDYMNMTPRRPGPTRKHYQPYAPPRDFAAYRSRVKFSRSADAPAYQQGQNQLYNELNLGRREEYDVLDKRRGRDPEMGGKPRRKNPQEGLYNELQKDKMAEAYSEIGMKGERRRGKGHDGLYQGLSTATKDTYDALHMQALPPRSSGSGEGRGSLLTCGDVEENPG
The molecule B4 showed a GFP induction (%) in CAR-expressing Jurkat-NFAT-EGFP cells, target cell line HEL of 33%; a GFP induction (%) in CAR-expressing Jurkat-NFAT-EGFP cells, target cell line RAJI-Mpl of 18%; a GFP induction (%) in CAR-expressing Jurkat-NFAT-EGFP cells, target cell line RAJI-vector of 11%.

B5: CD8SP-12E10-(vL-vH)-Myc-CD28z-T2A-PAC(031615-S03) (scFv)
chain: DQVQLQQSGPGLVKPSETLSLTCTVSGDSISSYYWSWIRQPPGKGLEWIGYIYYSGSTNYNPSLKSRVTISVDTSKSQFSLKLSSVTAADTAVYYCARGRYFDVWGRGTMVTSSGGGGSGGGGSGGGGSSSYVLTQPPSVSGSPGQSITISCTGTSSDVGGYNYVSWYQQHPGKAPKLMIYEGSKRPSGVSNRFSGSKSGNTASLTISGLQAEDEADYYCSSYTTRSTRVFGGGTKLTVLGAAATREQKLISEEDLKIEVMYPPPYLDNEKSNGTIIHVKGKHLCPSPLFPGPSKPFWVLVVVGGVLACYSLLVTVAFIIFWVRSKRSRLLHSDYMNMTPRRPGPTRKHYQPYAPPRDFAAYRSRVKFSRSADAPAYQQGQNQLYNELNLGRREEYDVLDKRRGRDPEMGGKPRRKNPQEGLYNELQKDKMAEAYSEIGMKGERRRGKGHDGLYQGLSTATKDTYDALHMQALPPRSSGSGEGRGSLLTCGDVEENPG
Molecule B5 yielded a GFP induction (%) in CAR-expressing Jurkat-NFAT-EGFP cells, target cell line HEL of 5%; a GFP induction (%) in CAR-expressing Jurkat-NFAT-EGFP cells, target cell line RAJI-Mpl of 6%; a GFP induction (%) in CAR-expressing Jurkat-NFAT-EGFP cells, target cell line RAJI-vector of 4%.

Source of the values: patent publication US20240166755A1, “CHIMERIC ANTIGEN RECEPTORS TARGETING CANCER” (University of Southern California, priority 2016, published 2024).
